Data from patent US20200078439A1 (IMMATICS BIOTECHNOLOGIES, published 2020).

Biological target: T1, HLA-A*0211 (purified recombinant HLA-A*0211 heavy chain with beta-2 microglobulin) (human)
T1 construct: MHC class I molecule without peptide; folds with b2m in a peptide-dependent manner, and folded complex is measured by ELISA
Experiment: ELISA-based refolding assay: recombinant HLA-A*0211 heavy chain + b2m + graded doses of peptide

Binder | binding result
LKLDRERAKN [BIR-13 (C-terminal decamer of BIR-004: LKLDRERAKN)] | binds
LDRERAKN [BIR-12 (C-terminal octamer of BIR-004: LDRERAKN)] | no binding
KLDRERAKN (also called nonamer BIR-11) [BIR-11 (C-terminal nonamer of BIR-004: KLDRERAKN)] | binds
